Results as given in patent publication US9464326B2, “Total and phosphorylated IL-1 receptor-associated kinase-1 and IL-1 receptor-associated kinase-4 as a biomarker for cancer progression and chemotherapy resistance” (University of Maryland, Baltimore, priority 2012, dated 2016).

Assays:
A375 melanoma cells [1] = assay: Western blot of cleaved PARP and caspase-3; type: cell-based, human; conditions: single agent alone, 48 hrs, FIG. 8D
Procedure: FIG. 8. […] (A) A375 and Malme-3M melanoma cells were cultured with or without 2.5 μM of IRAK-1,-4 and in the presence varying concentrations of vinblastine, cisplatin or 5′ Fluorouracil. Forty-eight hours later apoptosis was evaluated by staining cells with annexin-V and propidium iodide and analyzed by flow cytometry. (B) A375 cells were transfected via electroporation with siRNA-IRAK-1,-4. IRAK-1 protein levels were examined by Western blotting. […], A375-psiRNA-hIRAK-1, A375-psiRNA-hIRAK-4, or cells expressing both psiRNA-hIRAK-1 and -4 were cultured in the presence of vinblastine (100 nmol/L) for 48 hours and apoptosis was examined by flow cytometry. (C) A375 melanoma cells were cultured in the presence of vehicle alone (DMSO) or various concentrations of IRAK-1,-4. Forty-eight hours later cell lysates were used to analyze the expression of levels of cleaved PARP or caspase-3 by Western blots. (D) A375 melanoma cells were cultured with or without 2.5 μM of IRAK.-1,-4 and in the presence or absence of vinblastine for 48 hrs. PARP and caspase-3 levels were determined by Western blot.
(§1) Total cell extracts were prepared from melanoma cells. […] Melanoma tissue arrays were purchased from US Biomax, Inc (Rockville, Md.). For immunohistochemical staining samples were stained with mouse monoclonal anti-human phosphor-IRAK.-4 antibody (Abnova; dilution, 3.5 μg/ml) or normal mouse serum. Tissue histology sections (5-μm-thick) were deparaffinized, hydrated, heated in boiling 10 mmol/L sodium citrate (pH 6.0), for antigen retrieval, for 30 min and washed in Tris buffer. Peroxide blocking was done with 3% […] in methanol at room temperature for 15 min, followed by 10% fetal bovine serum in TBS-t for 30 min at room temperature. Primary antibody incubation was done overnight at 4° C. Secondary antibody incubation with horse anti-mouse (1:200; Vector Laboratories, Burlingame, Calif.) was done for 1 hr, followed by application of diaminobenzidine chromogen for 5 min. The slides were then counterstained with hematoxylin and topped with a coverslip. IHC specimens were analyzed using “quick score” system in which the intensity of the immunohistochemical reaction was scored by multiplying the intensity 1 (weak), 2 (moderate), and 3 (strong) and the proportion of cells staining positively 0 (<10%), 1 (10-25%), 2 (26-50%), 3 (51-75%) or 4 (>75%).

A375 melanoma cells [2] = assay: A375 melanoma xenograft model; conditions: IRAK-1,-4 inhibitor 35 mg/kg intratumorally, vinblastine 0.25 mg/kg i.p.; control 17 days
Procedure: (A-B) NSG mice (n=5) were injected subcutaneously with A375 melanoma cells. When tumors reached a size of approximately 50 mm^2 mice remained untreated or injected intraperitoneally with vinblastine mg/kg; administered every 2 days for 10 days), or peritumorally with IRAK-1,-4 inhibitor (35 mg/kg), or vinblastine plus IRAK.-1,-4 inhibitor. Tumor sizes were calculated by measuring perpendicular by longitudinal diameter;*, P<0.05. Mouse survival data were analyzed using the exact log-rank test;*, P<0.05, **P<0.001.
NOD.Cg-Prkdc^scid Il2rg^tmWJZ; SzJ IL2RG (NSG) mice (Jackson Laboratories, Bar Harbor, Me.) were subcutaneously (s.c.) injected with 2.5×10^6 A375 melanoma cells delivered in PBS. […] When tumors reached a size of approximately 50 mm^2 mice were injected intratumorally (i.t.) with 35 mg/kg of IRAK-1,-4 inhibitor or an equal volume of vehicle (DMSO). Mice were intraperitoneally (i.p.) injected with vinblastine (0.25 mg/kg) every 2 days for 5 days starting on the same day that mice received with IRAK-1,-4 inhibitor. Tumor sizes were analyzed using a mixed model approach for repeated measurements and mouse survival data were analyzed with the exact log-rank test.

CCRF-CEM = assay: Proliferation (3H-thymidine) of CCRF-CEM; type: cell-based, human; conditions: 3H-thymidine uptake, 72 h
Description: (§2) CCRF-CEM, CEM/C1, CEM/C2, CEM-C7, Jurkat, Loucy, Molt-4, HSB-2, SUP-T1, Hut 78, HH, Hut 102, MO, and H9 T-leukemia and T-lymphoma cell lines were purchased from the American Type Culture Collection (Manassas, Va., USA). All of the cell lines were initially expanded and cryopreserved within one month of receipt. Cells were typically used for 6 months at which time a fresh vial of cryopreserved cells was used. Total T cells from healthy donors were isolated via negative selection followed by positive selection using a CD3+ selection kit (Invitrogen, Carlsbad, Calif.). T cells were isolated from patients with T-ALL bone marrow or peripheral blood samples containing more than 70% leukemia cells using a CD2+ isolation kit (STEMCELL Technologies, Vancouver, Canada). All tissues were collected under institutional IRB-approved protocols and all participants gave written informed assent/consent. For in vitro experiments, T-ALL cells were cultured in AIM-V medium supplemented with 20% human AB serum in the presence of recombinant human stem cell factor (50 ng/mL; Amgen, Thousand Oaks, Calif.), insulin (20 nM; Sigma-Aldrich, St Louis, Mo., USA) and IL-7 (50 ng/mL; R&D Systems, Minneapolis, Minn., USA). In other experiments, protein lysate was collected using the Full Moon Biosystems (Sunnyvale, Calif., USA) buffer prior to protein examination by western blot or protein array.
(§3) Cells were cultured in a 96-well plate (Corning Costar, Corning, N.Y., USA) with various concentrations of TLR ligands 1-9, starting at 10 μg/ml, in a final volume of 200 ul. TLR ligands were diluted 2-fold. Cell lines (25-40×10^3/well) were cultured for 54 hours, whereas fresh patient-derived T-ALL cells (200×10^3/well) were cultured for 30 hours prior to adding [^3H]-thymidine for 18 hours. After this time point, cells were harvested with a Packard Filter-Mate-96 cell harvester (Perkin Elmer, Waltham, Mass., USA) and counted on Packard Top Count-NXT (Perkin Elmer, Waltham, Mass., USA). Results were expressed as average counts per minute (cpm). In some experiments CCRF-CEM cells were pre-treated with TLR1-TLR2 ligand (Pam3CysK4; 2.5 ug/ml) for 48 hrs, washed, and then cultured in the presence of varying concentrations of FBS. Forty-eight hours later, proliferation (±SD) was determined by ^3H-thymidine incorporation. Alternatively, apoptosis was measured by flow cytometry after staining cells with Annexin-V (BD Pharmingen, San Diego, Calif., USA) and propidium iodide (Sigma). Cell number was counted under microscopy by staining cells with trypan blue.
(§4) The following TLR ligands were purchased from Invivogen (San Diego, Calif., USA): tripalmitoyl-S-(bis(palmitoyloxy)propyl)-Cys-Ser-(Lys)3-Lys (TLR1-2); Poly I:C (TLR3); ultrapure S. Minnesota Lipopolysaccharide (TLR4); S. typhimurium flagellin (TLR5); FSL-1 (TLR2/6); Imiquimod (TLR7); ssRNA40/Lyovec (TLR8); CpG-ODN 2006 (TLR9).

Hut-78 = assay: Proliferation (3H-thymidine) of Hut-78; type: cell-based, human; conditions: 3H-thymidine uptake, 72 h
Description: as §2, with “In other experiments, protein lysate was collected using the Full Moon Biosystems (Sunnyvale, Calif., USA) buffer prior to protein examination by western blot or protein array.” left out
(§5) Cells were cultured in a 96-well plate (Corning Costar, Corning, N.Y., USA) with various concentrations of TLR ligands 1-9, starting at 10 μg/ml, in a final volume of 200 ul. […] After this time point, cells were harvested with a Packard Filter-Mate-96 cell harvester (Perkin Elmer, Waltham, Mass., USA) and counted on Packard Top Count-NXT (Perkin Elmer, Waltham, Mass., USA). Results were expressed as average counts per minute (cpm). […] Forty-eight hours later, proliferation (±SD) was determined by ^3H-thymidine incorporation. Alternatively, apoptosis was measured by flow cytometry after staining cells with Annexin-V (BD Pharmingen, San Diego, Calif., USA) and propidium iodide (Sigma). Cell number was counted under microscopy by staining cells with trypan blue. […]

SupT1 = assay: Proliferation (3H-thymidine) of SupT1; type: cell-based, human; conditions: SupT1; 3H-thymidine uptake, 72 h
Description: as §2, §3, §4

MO = assay: Proliferation (3H-thymidine) of MO; type: cell-based, human; conditions: 3H-thymidine uptake, 72 h
Description: as §2, with “In other experiments, protein lysate was collected using the Full Moon Biosystems (Sunnyvale, Calif., USA) buffer prior to protein examination by western blot or protein array.” left out
as §5

G361 melanoma cells = assay: Western blot of IRAK phosphorylation in G361; type: cell-based, human; conditions: 48 hours
Procedure: (§6) FIG. 22. Effects of TLR stimulation and cytokines on IRAK phosphorylation in melanoma cells. (A) A375 cells were cultured in the presence of anti-IL-18, anti-CXCL-1, (R&D Systems), anti-IL-1 (BioLegend), or mouse IgG (Sigma-Aldrich) all at 10 μg/ml. Forty-eight hours later the levels of the indicated proteins were determined by western blot. (B) A375 cells, which express p-IRAK-1 and p-IRAK-4, and G361 melanoma cells, which express very low levels of p-IRAK-1 (and express TLR5) were cultured in the presence of TLR1-TLR2 agonist (Pam3CysK4; 2.5 μg/ml) or TLR5 (flagellin; 100 ng/ml; InVivogen). Forty-eight hours later total protein was collected and the levels of the indicated proteins were examined by western blot.
as §1

HH = assay: Proliferation (3H-thymidine) of HH; type: cell-based, human; conditions: 3H-thymidine uptake, 72 h
Description: as §2, with “In other experiments, protein lysate was collected using the Full Moon Biosystems (Sunnyvale, Calif., USA) buffer prior to protein examination by western blot or protein array.” left out
as §5

CEM-C2 = assay: Proliferation (3H-thymidine) of CEM-C2; type: cell-based, human; conditions: 3H-thymidine uptake, 72 h
Description: as §2
as §3, with “blue. […]” for “blue.”

CEM-C1 = assay: Proliferation (3H-thymidine) of CEM-C1; type: cell-based, human; conditions: 3H-thymidine uptake, 72 h
Description: as §2
as §3, with “blue. […]” for “blue.”

CEM-C7 = assay: Proliferation (3H-thymidine) of CEM-C7; type: cell-based, human
Description: as §2, §3, §4

A375 cells = assay: Western blot of IRAK phosphorylation in A375; type: cell-based, human; conditions: 48 hours
Procedure: as §6, §1

Molt-4 = assay: Proliferation (3H-thymidine) of Molt-4; type: cell-based, human; conditions: 3H-thymidine uptake, 72 h
Description: as §2, with “In other experiments, protein lysate was collected using the Full Moon Biosystems (Sunnyvale, Calif., USA) buffer prior to protein examination by western blot or protein array.” left out
as §5

HSB-2 = assay: Proliferation (3H-thymidine) of HSB-2; type: cell-based, human
Description: as §2, §3, §4

Jurkat = assay: Proliferation (3H-thymidine) of Jurkat; type: cell-based, human; conditions: 3H-thymidine uptake, 72 h
Description: as §2
as §3, with “blue. […]” for “blue.”

Loucy = assay: Proliferation (3H-thymidine) of Loucy; type: cell-based, human; conditions: 3H-thymidine uptake, 72 h
Description: as §2
as §3, with “blue. […]” for “blue.”

[3] = tested on: Primary T-cells Activated; assay: Proliferation (3H-thymidine) of activated primary T-cells; type: cell-based, human; conditions: Primary T-cells, Activated
Description: as §2, §3, §4

Primary T-cells Non-Act = assay: Proliferation (3H-thymidine) of non-activated primary T-cells; type: cell-based, human; conditions: 3H-thymidine uptake, 72 h
Description: as §2, with “In other experiments, protein lysate was collected using the Full Moon Biosystems (Sunnyvale, Calif., USA) buffer prior to protein examination by western blot or protein array.” left out
as §5

Hut 102 = assay: Proliferation (3H-thymidine) of Hut 102; type: cell-based, human; conditions: 3H-thymidine uptake, 72 h
Description: as §2, with “In other experiments, protein lysate was collected using the Full Moon Biosystems (Sunnyvale, Calif., USA) buffer prior to protein examination by western blot or protein array.” left out
as §5

H9 = assay: Proliferation (3H-thymidine) of H9; type: cell-based, human; conditions: H9
Description: as §2, §3, §4

[4] = Pam3CysK4 2.5 μg/ml or flagellin 100 ng/ml, FIG. 22B

Molecule: CC[C@]1(O)C[C@@H]2CN(CCc3c([nH]c4ccccc34)[C@@](C(=O)OC)(c3cc4c(cc3OC)N(C)[C@H]3[C@@](O)(C(=O)OC)[C@H](OC(C)=O)[C@]5(CC)C=CCN6CC[C@]43[C@@H]65)C2)C1 [vinblastine]
- levels of cleaved PARP and caspase-3 (A375 melanoma cells [1]): little effect
- median survival (A375 melanoma cells [2]): 22 days

B1: Flagellin: S. typhimurium flagellin, TLR5 ligand (Invivogen) (protein, UniProt P06179 2-495, looked up)
Flagellin: AQVINTNSLSLLTQNNLNKSQSALGTAIERLSSGLRINSAKDDAAGQAIANRFTANIKGLTQASRNANDGISIAQTTEGALNEINNNLQRVRELAVQSANSTNSQSDLDSIQAEITQRLNEIDRVSGQTQFNGVKVLAQDNTLTIQVGANDGETIDIDLKQINSQTLGLDTLNVQQKYKVSDTAATVTGYADTTIALDNSTFKASATGLGGTDQKIDGDLKFDDTTGKYYAKVTVTGGTGKDGYYEVSVDKTNGEVTLAGGATSPLTGGLPATATEDVKNVQVANADLTEAKAALTAAGVTGTASVVKMSYTDNNGKTIDGGLAVKVGDDYYSATQNKDGSISINTTKYTADDGTSKTALNKLGGADGKTEVVSIGGKTYAASKAEGHNFKAQPDLAEAAATTTENPLQKIDAALAQVDTLRSDLGAVQNRFNSAITNLGNTVNNLTSARSRIEDSDYATEVSNMSRAQILQQAGTSVLAQANQVPQNVLSLLR
- Proliferative effects of TLR ligands (CCRF-CEM): ∘
- Proliferative effects of TLR ligands (Hut-78): ∘
- Proliferative effects of TLR ligands (SupT1): ∘
- Proliferative effects of TLR ligands (MO): ∘
- p-IRAK-1 or p-IRAK-4 expression levels (G361 melanoma cells; [4]): neither TLR-1-TLR2 agonist (Pam3CysK4), nor TLR5 (Flagellin) stimulation increased or induced
- total and p-IRAK-4 levels (G361 melanoma cells; flagellin 100 ng/ml): reduced
- Proliferative effects of TLR ligands (HH): ∘
- Proliferative effects of TLR ligands (CEM-C2): ∘
- Proliferative effects of TLR ligands (CEM-C1): ∘
- Proliferative effects of TLR ligands (CEM-C7; 3H-thymidine uptake, 72 h): − (reduced proliferation)
- TLR ligand concentration in parentheses below the symbol (CEM-C7; no unit in table (μg/ml)): (2.5)
- p-IRAK-1 or p-IRAK-4 expression levels (A375 cells; [4]): neither TLR-1-TLR2 agonist (Pam3CysK4), nor TLR5 (Flagellin) stimulation increased or induced
- total and p-IRAK-4 levels (A375 cells; flagellin 100 ng/ml): reduced
- Proliferative effects of TLR ligands (Molt-4): ∘
- Proliferative effects of TLR ligands (HSB-2; 3H-thymidine uptake, 72 h): − (reduced proliferation)
- TLR ligand concentration in parentheses below the symbol (HSB-2; no unit in table (μg/ml)): (10)
- Proliferative effects of TLR ligands (Jurkat): ∘
- Proliferative effects of TLR ligands (Loucy): ∘
- Proliferative effects of TLR ligands ([3]; 3H-thymidine uptake, 72 h): + (enhanced proliferation by 25% or greater)
- TLR ligand concentration in parentheses below the symbol ([3]; no unit in table (μg/ml)): (10)
- Proliferative effects of TLR ligands (Primary T-cells Non-Act): ∘
- Proliferative effects of TLR ligands (Hut 102): ∘
- Proliferative effects of TLR ligands (H9; 3H-thymidine uptake, 72 h): − (reduced proliferation)
- TLR ligand concentration in parentheses below the symbol (H9; no unit in table (μg/ml)): (10)
